Test results taken from paper PMC7835349 (Communications Biology, 2021).

Tests used:
[1] = In vitro release of AZD4320 from conjugate in rat plasma with 5% HEPES, 37 °C (Fig S8); format: in vitro ADME; conditions: Rat Plasma 37 °C
Procedure: AZD4320 loading was quantified by 1H NMR spectroscopy. […]
conjugated AZD4320 peak areas. […]
AZD4320 conjugated dendrimer in plasma
Supplementary Figure 8. Comparison and release rate in plasma and buffer. Cumulative in vitro release of AZD4320 measured over time from AZD4320-dendrimer conjugate SPL8977) in phosphate buffered saline (purple circles, n=3) and rat plasma (green squares, n=2) and fit to first order model at 37 °C (n=2) […]

telemetered dogs = conditions: dog, in vivo, 60 mg/kg
[2] = In vitro release of AZD4320 from dendrimer conjugates in PBS pH 7.4, 37 °C; conditions: for Cummulative Release % / Mean % Released: PBS 37 °C
Procedure: In vitro release half-life was calculated by least squares fitting to a 1st order release model.
AZD4320 release kinetics were determined in vitro under physiological conditions.
Nanoparticles were suspended in phosphate buffered saline (PBS) pH7.4 or rat plasma with 5%
HEPES in HPLC vials and sample temperature maintained to 37 °C using a water bath with
continuous stirring of the sample provided by iChem explorer unit. Periodically, 5-10 µL of
sample was injected onto the column (Acquity UPLC BEH shield RP18 1.7 µm, 4.6 x 30 mm,
Waters), bracketed by DMA to re-dissolve any precipitated AZD4320. The percent release was
calculated by comparing unconjugated AZD4320 peak area to total unconjugated + dendrimer-
conjugated AZD4320 peak areas. The half-life was calculated by least squares fitting to a 1st

## AZD4320-MIDA-PEG2100 [AZD0466]
[1]; 1.06 h, Replicate 1
  Cummulative Release %: 2.56%
[1]; 1.24 h, Replicate 2
  Cummulative Release %: 3.28%
[1]; 5.87 h, Replicate 1
  Cummulative Release %: 9.61%
[1]; 6.04 h, Replicate 2
  Cummulative Release %: 11.99%
[1]; 10.67 h, Replicate 1
  Cummulative Release %: 18.75%
[1]; 10.85 h, Replicate 2
  Cummulative Release %: 23.05%
[1]; 15.47 h, Replicate 1
  Cummulative Release %: 27.34%
[1]; 15.65 h, Replicate 2
  Cummulative Release %: 32.24%
[1]; 20.27 h, Replicate 1
  Cummulative Release %: 39.17%
[1]; 20.45 h, Replicate 2
  Cummulative Release %: 41.44%
Telemetered dogs
  adverse clinical signs: not associated with any adverse clinical signs
[2]; 0.75 h, Replicate 1
  Cummulative Release %: 2.01%
[2]; 0.90 h, Replicate 2
  Cummulative Release %: 2.72%
[2]; 1.05 h, Replicate 3
  Cummulative Release %: 2.87%
[2]; 1.67 h, Replicate 1
  Cummulative Release %: 3.95%
[2]; 1.82 h, Replicate 2
  Cummulative Release %: 4.63%
[2]; 1.97 h, Replicate 3
  Cummulative Release %: 5.12%
[2]; 2.60 h, Replicate 1
  Cummulative Release %: 6.37%
[2]; 2.75 h, Replicate 2
  Cummulative Release %: 7.07%
[2]; 2.90 h, Replicate 3
  Cummulative Release %: 7.57%
[2]; 3.52 h, Replicate 1
  Cummulative Release %: 8.48%
[2]; 3.67 h, Replicate 2
  Cummulative Release %: 9.50%
[2]; 3.83 h, Replicate 3
  Cummulative Release %: 9.95%
[2]; 4.45 h, Replicate 1
  Cummulative Release %: 10.66%
[2]; 4.60 h, Replicate 2
  Cummulative Release %: 11.87%
[2]; 4.75 h, Replicate 3
  Cummulative Release %: 12.24%
[2]; 5.37 h, Replicate 1
  Cummulative Release %: 12.82%
[2]; 5.52 h, Replicate 2
  Cummulative Release %: 13.72%
[2]; 5.68 h, Replicate 3
  Cummulative Release %: 14.33%
[2]; 6.30 h, Replicate 1
  Cummulative Release %: 15.04%
[2]; 6.45 h, Replicate 2
  Cummulative Release %: 16.29%
[2]; 6.60 h, Replicate 3
  Cummulative Release %: 15.86%
[2]; 7.22 h, Replicate 1
  Cummulative Release %: 15.94%
[2]; 7.37 h, Replicate 2
  Cummulative Release %: 17.47%
[2]; 7.53 h, Replicate 3
  Cummulative Release %: 17.99%
[2]; 8.15 h, Replicate 1
  Cummulative Release %: 18.09%
[2]; 8.30 h, Replicate 2
  Cummulative Release %: 19.34%
[2]; 8.45 h, Replicate 3
  Cummulative Release %: 19.77%
[2]; 9.07 h, Replicate 1
  Cummulative Release %: 20.00%
[2]; 9.23 h, Replicate 2
  Cummulative Release %: 21.33%
[2]; 9.38 h, Replicate 3
  Cummulative Release %: 21.63%
[2]; 10.00 h, Replicate 1
  Cummulative Release %: 22.23%
[2]; 10.15 h, Replicate 2
  Cummulative Release %: 23.21%
[2]; 10.30 h, Replicate 3
  Cummulative Release %: 23.50%
[2]; 10.92 h, Replicate 1
  Cummulative Release %: 23.70%
[2]; 11.08 h, Replicate 2
  Cummulative Release %: 25.81%
[2]; 11.23 h, Replicate 3
  Cummulative Release %: 25.99%
[2]; 11.85 h, Replicate 1
  Cummulative Release %: 25.62%
[2]; 12.00 h, Replicate 2
  Cummulative Release %: 26.79%
[2]; 12.15 h, Replicate 3
  Cummulative Release %: 27.44%
[2]; 12.77 h, Replicate 1
  Cummulative Release %: 27.74%
[2]; 12.93 h, Replicate 2
  Cummulative Release %: 29.41%
[2]; 13.08 h, Replicate 3
  Cummulative Release %: 29.66%
[2]; 13.70 h, Replicate 1
  Cummulative Release %: 29.02%
[2]; 13.85 h, Replicate 2
  Cummulative Release %: 30.77%
[2]; 14.00 h, Replicate 3
  Cummulative Release %: 31.43%
[2]; 14.63 h, Replicate 1
  Cummulative Release %: 30.82%
[2]; 14.78 h, Replicate 2
  Cummulative Release %: 32.39%
[2]; 14.93 h, Replicate 3
  Cummulative Release %: 33.56%
[2]; 15.55 h, Replicate 1
  Cummulative Release %: 32.52%
[2]; 15.70 h, Replicate 2
  Cummulative Release %: 34.45%
[2]; 15.85 h, Replicate 3
  Cummulative Release %: 35.54%
[2]; 16.48 h, Replicate 1
  Cummulative Release %: 34.39%
[2]; 16.63 h, Replicate 2
  Cummulative Release %: 35.86%
[2]; 16.78 h, Replicate 3
  Cummulative Release %: 36.74%
[2]; 17.40 h, Replicate 1
  Cummulative Release %: 35.32%
[2]; 17.55 h, Replicate 2
  Cummulative Release %: 37.92%
[2]; 17.71 h, Replicate 3
  Cummulative Release %: 39.37%
[2]; 18.33 h, Replicate 1
  Cummulative Release %: 37.81%
[2]; 18.48 h, Replicate 2
  Cummulative Release %: 39.44%
[2]; 18.63 h, Replicate 3
  Cummulative Release %: 41.92%
[2]; 19.25 h, Replicate 1
  Cummulative Release %: 40.42%
[2]; 19.40 h, Replicate 2
  Cummulative Release %: 41.10%
[2]; 19.56 h, Replicate 3
  Cummulative Release %: 42.30%
[2]; 20.18 h, Replicate 1
  Cummulative Release %: 40.20%
[2]; 20.33 h, Replicate 2
  Cummulative Release %: 43.40%
[2]; 20.48 h, Replicate 3
  Cummulative Release %: 44.87%
[2]; 21.10 h, Replicate 1
  Cummulative Release %: 42.52%
[2]; 21.25 h, Replicate 2
  Cummulative Release %: 45.67%
[2]; 21.41 h, Replicate 3
  Cummulative Release %: 46.38%
[2]; 22.03 h, Replicate 1
  Cummulative Release %: 45.50%
[2]; 22.18 h, Replicate 2
  Cummulative Release %: 47.56%
[2]; 22.33 h, Replicate 3
  Cummulative Release %: 48.29%
[2]; 22.95 h, Replicate 1
  Cummulative Release %: 46.44%
[2]; 23.10 h, Replicate 2
  Cummulative Release %: 48.78%
[2]; 23.88 h, Replicate 1
  Cummulative Release %: 47.76%
[2]; 24.03 h, Replicate 2
  Cummulative Release %: 50.99%
[2]; 24.80 h, Replicate 1
  Cummulative Release %: 50.26%
[2]; 24.95 h, Replicate 2
  Cummulative Release %: 53.17%
[2]; mean time 0.90 h
  Mean % Released: 2.53%
[2]; mean time 1.82 h
  Mean % Released: 4.57%
[2]; mean time 2.75 h
  Mean % Released: 7.00%
[2]; mean time 3.67 h
  Mean % Released: 9.31%
[2]; mean time 4.60 h
  Mean % Released: 11.59%
[2]; mean time 5.52 h
  Mean % Released: 13.62%
[2]; mean time 6.45 h
  Mean % Released: 15.73%
[2]; mean time 7.37 h
  Mean % Released: 17.14%
[2]; mean time 8.30 h
  Mean % Released: 19.07%
[2]; mean time 9.23 h
  Mean % Released: 20.98%
[2]; mean time 10.15 h
  Mean % Released: 22.98%
[2]; mean time 11.08 h
  Mean % Released: 25.17%
[2]; mean time 12.00 h
  Mean % Released: 26.61%
[2]; mean time 12.93 h
  Mean % Released: 28.93%
[2]; mean time 13.85 h
  Mean % Released: 30.40%
[2]; mean time 14.78 h
  Mean % Released: 32.26%
[2]; mean time 15.70 h
  Mean % Released: 34.17%
[2]; mean time 16.63 h
  Mean % Released: 35.66%
[2]; mean time 17.55 h
  Mean % Released: 37.54%
[2]; mean time 18.48 h
  Mean % Released: 39.72%
[2]; mean time 19.40 h
  Mean % Released: 41.27%
[2]; mean time 20.33 h
  Mean % Released: 42.83%
[2]; mean time 21.25 h
  Mean % Released: 44.86%
[2]; mean time 22.18 h
  Mean % Released: 47.12%
[2]; mean time 23.03 h
  Mean % Released: 47.61%
[2]; mean time 23.95 h
  Mean % Released: 49.38%
[2]; mean time 24.88 h
  Mean % Released: 51.72%
[2]; PBS pH 7.4, 37 °C, first order fit
  In vitro release half-life (t1/2) of AZD4320: 25.5 h
